These results are taken from publication PMC3767815, “A Novel α-L-Arabinofuranosidase of Family 43 Glycoside Hydrolase (Ct43Araf) from Clostridium thermocellum” (PLoS ONE, 2013).

Substrate in series [1]: O=[N+]([O-])c1ccc(O[C@@H]2O[C@@H](CO)[C@H](O)[C@H]2O)cc1
Nature of the series: purified protein. The class given is biochemical, Acetivibrio thermocellus. Particulars: 50°C, 20 mM sodium phosphate pH 5.7 (table note; methods print 50 mM sodium phosphate pH 6.0), substrate 20–500 µM.

Substrate in series [2]: O=[N+]([O-])c1ccc(O[C@@H]2OC[C@H](O)[C@H](O)[C@H]2O)cc1
Nature of the series: purified protein. The class given is biochemical, Acetivibrio thermocellus. As to conditions: 50°C, 20 mM sodium phosphate pH 5.7 (table note; methods print 50 mM sodium phosphate pH 6.0), substrate 20–500 µM.

B1: Ct43Araf (Acetivibrio thermocellus ATCC 27405) (protein)
chain: AADYPIFSQRFTADPAAVVYNGRLYIYCSHDSDATPGQSTYNIPDITCISTDDLKNWTDHGEVFNAKRDSRWASVSWAPSIVYRNNKFYLYYGNGGNGIGVAVSDSPTGPFKDPLPGPLVSWNTPGVQPAQNMWLFDPGVFVDDDGQAYMYFGGNGQNNIRVIKLGNDMISTVGSAMTMSAPRFFEAAYMHKYNGKYYFSYASDFSQGASKIEYMMSDKPTTGFQYKGVILPQPPDNYSNNNHHAIVEYKGNWYVVYHNRTVAKQRGLDPVYQRNVCIDQMFYNADGTIKQVVPTVDGLKQLKYVDPYTKNLAVTMHKESGIETEECSEGGRNVAFIENGDWIQVKGVDFGNVGPTSFEARVASATNGGNIEIRLDSPTGTLIGTCKVEGTGDWQKWVTKTCSVSKVTGVHDLFFRFTGGSGYLFNFSWWKFNSDATPTPTPPPQPSTVPVTERSAFSKIEVEDFNDIKSSTIQKIGTPNGGSGIGYIENGDWLAYKNIDFGNGATTFKALVASTLSPNIELRLDSPTGTLIGTLKVAATGGFNAYEEQSCNISKVTGKHDLYLVFSGAVNIDWFTFGGSSGII
notes: CtGH43-CtCBM6A-CtCBM6B; His6-tagged, pET-21a(+), E. coli BL21(DE3); 63 kDa; gene range printed 1545911 to 1547651; modules 903, 405 and 402 bp; forward primer starts at AADYP
For B1, in series [1], the Km was determined as 0.05 ± 0.002 mg/mL and the kcat was 4.717 ± 0.0333 s⁻¹. In series [2], the Km turned out to be 0.093 ± 0.003 mg/mL and the kcat stood at 3.5 ± 0.0783 s⁻¹.

B2: CtGH43 (Acetivibrio thermocellus ATCC 27405) (protein)
chain: AADYPIFSQRFTADPAAVVYNGRLYIYCSHDSDATPGQSTYNIPDITCISTDDLKNWTDHGEVFNAKRDSRWASVSWAPSIVYRNNKFYLYYGNGGNGIGVAVSDSPTGPFKDPLPGPLVSWNTPGVQPAQNMWLFDPGVFVDDDGQAYMYFGGNGQNNIRVIKLGNDMISTVGSAMTMSAPRFFEAAYMHKYNGKYYFSYASDFSQGASKIEYMMSDKPTTGFQYKGVILPQPPDNYSNNNHHAIVEYKGNWYVVYHNRTVAKQRGLDPVYQRNVCIDQMFYNADGTIKQVVPTVDGLKQ
notes: truncated: N-terminal GH43 catalytic module only (903 bp), both CBM6 removed; His6-tagged, pET-28a(+), E. coli BL21(DE3) pLysS; 34 kDa
Consider B2, for which, in series [1], the Km amounted to 0.04 ± 0.004 mg/mL and the kcat came out at 4.783 ± 0.0167 s⁻¹. Further, in series [2], the Km was found to be 0.097 ± 0.004 mg/mL and the kcat stood at 3.533 ± 0.0333 s⁻¹.
